The values below come from PMC3774798 (PLoS ONE, 2013).

Data set [1] has as its system Nc1nc2c(ncn2[C@@H]2O[C@H](COP(=O)(O)O[C@H]3[C@@H](O)[C@H](n4cnc5c(=O)[nH]c(N)nc54)O[C@@H]3COP(=O)(O)O)[C@@H](O)[C@H]2O)c(=O)[nH]1. The data set can be described thus: purified protein. As to conditions: Mg2+ and/or Mn2+.
In data set [2] the test system is Nc1nc2c(ncn2[C@@H]2O[C@@H]3CO[P@](=O)(O)O[C@H]4[C@@H](O)[C@H](n5cnc6c(=O)[nH]c(N)nc65)O[C@@H]4CO[P@](=O)(O)O[C@H]3[C@H]2O)c(=O)[nH]1. Briefly: purified protein.
Data set [3] concerns the target T1, PA4781HD-GYP (Pseudomonas aeruginosa, UniProt Q9HV27).
T1 construct: gene PA4781; HD-GYP domain, first 111 residues (REC domain) removed, His-tag (pET28b), E. coli BL21(DE3); mainly monomer
The data set can be described thus: RP-HPLC of nucleotides, turnover. Type of data set: biochemical. To be noted: REC domain removed, not phosphorylated; pH 8, 30 °C, Mg2+ and/or Mn2+.

Setting [4] is: protein phosphorylated with acetyl phosphate (extent unknown), pH 8, 30 °C.
[5] abbreviates: 50 mM Tris-HCl pH 8, 150 mM NaCl, 30 °C, may be apparent value (about 30% c-di-GMP still bound to protein).
[6] abbreviates: 10 mM MgCl2 and 2.5 mM MnCl2, 50 mM Tris-HCl pH 8, 150 mM NaCl, 30 °C, 0.64 µM enzyme.

T1 sequence (Q9HV27 112-393): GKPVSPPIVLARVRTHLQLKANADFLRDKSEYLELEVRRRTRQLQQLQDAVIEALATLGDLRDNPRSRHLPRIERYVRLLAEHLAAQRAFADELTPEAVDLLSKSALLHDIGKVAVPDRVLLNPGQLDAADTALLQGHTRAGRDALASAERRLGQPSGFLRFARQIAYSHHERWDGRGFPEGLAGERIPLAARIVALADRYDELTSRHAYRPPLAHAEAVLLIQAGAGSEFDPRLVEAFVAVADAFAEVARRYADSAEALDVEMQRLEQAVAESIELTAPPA

For the compound PA4781 (Pseudomonas aeruginosa PAO1), in data set [1] (setting [4]), the Km (usually the concentration of substrate that gives half-maximal velocity) was 27 ± 8 µM; the kcat – broadly, the number of substrate molecules converted per active site and unit of time at saturation – is reported as 7.7±1x10^-4 s^-1. Besides, the Km in data set [2] (protein phosphorylated with acetyl phosphate (extent unknown), 10 mM MgCl2, pH 8, 30 °C) is 119 ± 30 µM.

On to PA4108 (Pseudomonas aeruginosa PAO1), for which the Km in data set [1] (setting [5]) came out at 30 ± 9 µM; in data set [2] (setting [6]) it was 20 ± 5 µM. The kcat in data set [1] (setting [5]) is 1.2±0.1x10^-3 s^-1; in data set [2] (setting [6]), 0.00015 ± 1e-05 s⁻¹.

For the compound `Nc1nc2c(ncn2[C@@H]2O[C@@H]3COP(=O)(O)O[C@H]4[C@@H](O)[C@H](n5cnc6c(=O)[nH]c(N)nc65)O[C@@H]4COP(=O)(O)O[C@H]3[C@H]2O)c(=O)[nH]1` [c-di-GMP], in data set [3], the “RP-HPLC of nucleotides, turnover” value is “displays little, but significant PDE activity”.
